B1: Cell cycle protein kinase spo4 (Schizosaccharomyces pombe (strain ATCC 38366 / 972)), Q9UQY9 (parent)
chain: MLSMLLPFGNSGVYASDVDREDRPEIAKLVQAFPTIEEDYHVVKLVGAGSFSSVFKAVDRHFDSYDNSYWISSQIEDQMPHDKTKRPKNHFVALKRIYATVLPSRIQTELEMLHELRGSDCVLNMITAVRHQDQVLIVLPFIQHAEFRDFYMKYSLPEIGAYLRDLLKGLAHIDAKGIIHRDIKPGNFAWNPYTQRGVILDFGLAQWQEADAPTENCCVDKLRKLKQEGKYYDYFPFEKTIADPPEGYLLHDPRPTKRADRAGTRGFRAPEVLFRCQNQTSSIDVWSVGVILLCFLTHRYPFFRCEDDIDAIVELAHIFGRNGMSNCALLHGQIWSDNIPTLLDQKHNWLDLIASITKNDENLILETSSDYQVALAIDLLDKLLELHPSKRVKAKTALQHEFFNACGVTRSGFEAENPFRSDFPSTVEQ
partner: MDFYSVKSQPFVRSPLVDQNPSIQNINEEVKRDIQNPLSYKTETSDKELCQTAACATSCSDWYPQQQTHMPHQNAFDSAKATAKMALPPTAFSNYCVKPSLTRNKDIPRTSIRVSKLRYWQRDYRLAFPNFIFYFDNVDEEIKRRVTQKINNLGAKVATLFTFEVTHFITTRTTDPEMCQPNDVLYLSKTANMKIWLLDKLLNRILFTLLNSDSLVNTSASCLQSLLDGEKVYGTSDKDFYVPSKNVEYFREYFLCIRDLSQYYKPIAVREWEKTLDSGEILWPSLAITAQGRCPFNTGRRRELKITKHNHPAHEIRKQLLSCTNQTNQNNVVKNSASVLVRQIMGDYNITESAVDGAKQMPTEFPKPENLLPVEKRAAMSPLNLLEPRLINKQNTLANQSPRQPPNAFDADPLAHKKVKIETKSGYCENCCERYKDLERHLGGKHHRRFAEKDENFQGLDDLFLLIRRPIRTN

Variants of: B1
Conditions: with spo6_schpo spo6, Q9Y7J1

effect of a mutation on the interaction	Variant
with no effect	MLSMLLPFGNSGVYASDVDREDRPEIAKLVQAFPTIEEDYHVVKLVGAGSFSSVFKAVDRHFDSYDNSYWISSQIEDQMPHDKTKRPKNHFVALARIYATVLPSRIQTELEMLHELRGSDCVLNMITAVRHQDQVLIVLPFIQHAEFRDFYMKYSLPEIGAYLRDLLKGLAHIDAKGIIHRDIKPGNFAWNPYTQRGVILDFGLAQWQEADAPTENCCVDKLRKLKQEGKYYDYFPFEKTIADPPEGYLLHDPRPTKRADRAGTRGFRAPEVLFRCQNQTSSIDVWSVGVILLCFLTHRYPFFRCEDDIDAIVELAHIFGRNGMSNCALLHGQIWSDNIPTLLDQKHNWLDLIASITKNDENLILETSSDYQVALAIDLLDKLLELHPSKRVKAKTALQHEFFNACGVTRSGFEAENPFRSDFPSTVEQ [K95A]

Source: IntAct's records for PubMed 11739743
